Laboratory results taken from IntAct's records for PubMed 16968782.

B1: Nephrin (Homo sapiens), O60500-1 (parent)
chain: MALGTTLRASLLLLGLLTEGLAQLAIPASVPRGFWALPENLTVVEGASVELRCGVSTPGSAVQWAKDGLLLGPDPRIPGFPRYRLEGDPARGEFHLHIEACDLSDDAEYECQVGRSEMGPELVSPRVILSILVPPKLLLLTPEAGTMVTWVAGQEYVVNCVSGDAKPAPDITILLSGQTISDISANVNEGSQQKLFTVEATARVTPRSSDNRQLLVCEASSPALEAPIKASFTVNVLFPPGPPVIEWPGLDEGHVRAGQSLELPCVARGGNPLATLQWLKNGQPVSTAWGTEHTQAVARSVLVMTVRPEDHGAQLSCEAHNSVSAGTQEHGITLQVTFPPSAIIILGSASQTENKNVTLSCVSKSSRPRVLLRWWLGWRQLLPMEETVMDGLHGGHISMSNLTFLARREDNGLTLTCEAFSEAFTKETFKKSLILNVKYPAQKLWIEGPPEGQKLRAGTRVRLVCLAIGGNPEPSLMWYKDSRTVTESRLPQESRRVHLGSVEKSGSTFSRELVLVTGPSDNQAKFTCKAGQLSASTQLAVQFPPTNVTILANASALRPGDALNLTCVSVSSNPPVNLSWDKEGERLEGVAAPPRRAPFKGSAAARSVLLQVSSRDHGQRVTCRAHSAELRETVSSFYRLNVLYRPEFLGEQVLVVTAVEQGEALLPVSVSANPAPEAFNWTFRGYRLSPAGGPRHRILSSGALHLWNVTRADDGLYQLHCQNSEGTAEARLRLDVHYAPTIRALQDPTEVNVGGSVDIVCTVDANPILPGMFNWERLGEDEEDQSLDDMEKISRGPTGRLRIHHAKLAQAGAYQCIVDNGVAPPARRLLRLVVRFAPQVEHPTPLTKVAAAGDSTSSATLHCRARGVPNIVFTWTKNGVPLDLQDPRYTEHTYHQGGVHSSLLTIANVSAAQDYALFTCTATNALGSDQTNIQLVSISRPDPPSGLKVVSLTPHSVGLEWKPGFDGGLPQRFCIRYEALGTPGFHYVDVVPPQATTFTLTGLQPSTRYRVWLLASNALGDSGLADKGTQLPITTPGLHQPSGEPEDQLPTEPPSGPSGLPLLPVLFALGGLLLLSNASCVGGVLWQRRLRRLAEGISEKTEAGSEEDRVRNEYEESQWTGERDTQSSTVSTTEAEPYYRSLRDFSPQLPPTQEEVSYSRGFTGEDEDMAFPGHLYDEVERTYPPSGAWGPLYDEVQMGPWDLHWPEDTYQDPRGIYDQVAGDLDTLEPDSLPFELRGHLV
partner: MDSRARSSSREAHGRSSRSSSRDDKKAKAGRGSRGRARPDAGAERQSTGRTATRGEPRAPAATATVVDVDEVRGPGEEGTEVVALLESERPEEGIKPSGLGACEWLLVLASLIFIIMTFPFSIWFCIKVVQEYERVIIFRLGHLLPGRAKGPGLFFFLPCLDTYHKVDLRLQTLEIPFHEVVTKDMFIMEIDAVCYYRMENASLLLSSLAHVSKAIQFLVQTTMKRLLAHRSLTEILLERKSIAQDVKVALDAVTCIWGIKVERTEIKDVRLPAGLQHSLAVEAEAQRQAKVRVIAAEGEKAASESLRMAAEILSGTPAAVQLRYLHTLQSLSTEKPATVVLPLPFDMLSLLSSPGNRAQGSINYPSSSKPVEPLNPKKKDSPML
B2: Nephrin (Homo sapiens), O60500-1 (parent)
chain: B1 chain

Variants of: B1
Conditions: with podo_mouse Nphs2, Q91X05

Row | Variant | effect of a mutation on the interaction
1 | Y1193F | disrupting interaction strength

Variants of: B2
Conditions: with arrb2_human ARRB2, P32121
arrb2_human ARRB2, P32121, sequence (P32121 whole entry): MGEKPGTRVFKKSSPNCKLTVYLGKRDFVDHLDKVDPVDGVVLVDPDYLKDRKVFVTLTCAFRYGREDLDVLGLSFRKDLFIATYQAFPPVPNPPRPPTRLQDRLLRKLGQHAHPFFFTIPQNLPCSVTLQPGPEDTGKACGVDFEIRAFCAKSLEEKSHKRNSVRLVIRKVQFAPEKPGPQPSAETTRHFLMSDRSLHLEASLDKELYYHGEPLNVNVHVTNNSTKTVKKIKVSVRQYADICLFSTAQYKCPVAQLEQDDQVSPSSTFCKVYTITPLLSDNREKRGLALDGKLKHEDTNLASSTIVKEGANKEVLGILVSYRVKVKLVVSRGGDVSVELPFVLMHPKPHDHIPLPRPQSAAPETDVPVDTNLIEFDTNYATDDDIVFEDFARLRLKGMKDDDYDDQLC

Row | Variant | effect of a mutation on the interaction
2 | Y1193A | decreasing interaction strength
